According to PMC4537474 (Protein & Cell, 2015):

What was measured:
FadR_ec [1] = molecular target: T1, FadR_ec (Escherichia coli (K-12), UniProt P0A8V6 1-239); experiment: EMSA; 5 pmol protein, 0.2 pmol probe; EMSA: Roche binding buffer, 20 min, room temperature, 0.2 pmol DIG probe (10 uL in Fig. 6), 7% native PAGE; SPR: Biacore3000, 20 mM Tris-HCl pH 7.5, 200 mM NaCl
FadR_she [2] = molecular target: T2, FadR_she (Shewanella oneidensis, UniProt Q8ED80 1-240); experiment: as above
FadR_vc = FadR_vc (Vibrio cholerae, UniProt Q9KQU8 1-279); experiment: EMSA; 5 pmol protein; super-shifted band attributed to multimer; EMSA: Roche binding buffer, 20 min, room temperature, 0.2 pmol DIG probe (10 uL in Fig. 6), 7% native PAGE; SPR: Biacore3000, 20 mM Tris-HCl pH 7.5, 200 mM NaCl
Sequence of FadR_vc (Q9KQU8 whole entry): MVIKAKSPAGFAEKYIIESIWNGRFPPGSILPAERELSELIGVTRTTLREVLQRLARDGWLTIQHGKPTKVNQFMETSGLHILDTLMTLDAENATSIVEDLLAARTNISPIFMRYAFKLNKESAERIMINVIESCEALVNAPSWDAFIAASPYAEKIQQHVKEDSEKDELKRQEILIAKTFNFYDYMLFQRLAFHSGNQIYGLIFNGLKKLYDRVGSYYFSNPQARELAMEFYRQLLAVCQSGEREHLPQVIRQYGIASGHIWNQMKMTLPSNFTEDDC

FadR_she [3] = molecular target: T2, FadR_she; experiment: SPR; 2:1 (FadR dimer per DNA); EMSA: Roche binding buffer, 20 min, room temperature, 0.2 pmol DIG probe (10 uL in Fig. 6), 7% native PAGE; SPR: Biacore3000, 20 mM Tris-HCl pH 7.5, 200 mM NaCl
FadR_ec [4] = molecular target: T1, FadR_ec; experiment: EMSA; C10:0-CoA ~50 pmol; EMSA: Roche binding buffer, 20 min, room temperature, 0.2 pmol DIG probe (10 uL in Fig. 6), 7% native PAGE; SPR: Biacore3000, 20 mM Tris-HCl pH 7.5, 200 mM NaCl
[5] = molecular target: the molecule itself; experiment: SEC; Superdex 75 column on an Akta FPLC, 0.35 mL/min, 20 mmol/L Tris-HCl, 50 mmol/L NaCl, pH 7.9; peak at 10.5 mL, between the 44 kDa and 67 kDa standards

T1 sequence (P0A8V6 whole entry): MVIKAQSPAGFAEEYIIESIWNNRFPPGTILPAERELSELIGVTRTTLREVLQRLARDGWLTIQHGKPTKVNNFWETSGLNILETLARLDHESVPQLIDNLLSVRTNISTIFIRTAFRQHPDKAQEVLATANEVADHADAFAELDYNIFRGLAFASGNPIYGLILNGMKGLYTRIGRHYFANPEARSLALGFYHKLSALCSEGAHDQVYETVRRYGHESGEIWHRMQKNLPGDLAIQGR

B1: fabA_ec probe (dsDNA)
DNA 1: TTTATTCCGAACTGATCGGACTTGTTCAGCGTACACGTGTTAGCTATCCTGCGTGC
DNA 2: GCACGCAGGATAGCTAACACGTGTACGCTGAACAAGTCCGATCAGTTCGGAATAAA
B1: binds (FadR_ec [1]); binds (FadR_she [2]); binds (FadR_vc).

B2: fabA_she probe, biotinylated (dsDNA)
DNA 1: GACATTAATTAGCTGATCGGAGTTGTTTAGCTTACACGTGTTCGCTAATCTTGGCG
DNA 2: CGCCAAGATTAGCGAACACGTGTAAGCTAAACAACTCCGATCAGCTAATTAATGTC
With B2 the Kd (FadR_she [3]) was roughly 436 nM.

B3: fabA_she probe (dsDNA)
DNA 1: GACATTAATTAGCTGATCGGAGTTGTTTAGCTTACACGTGTTCGCTAATCTTGGCG
DNA 2: CGCCAAGATTAGCGAACACGTGTAAGCTAAACAACTCCGATCAGCTAATTAATGTC
B3: binds (FadR_ec [4]).

B4: Shewanella oneidensis FadR protein (natural protein, Shewanella oneidensis MR-1, UniProt Q8ED80 1-240, looked up)
chain: MIINAKGPASFAEKYIVRSIWENKFPPGSILPAERELSELIGVTRTTLREVLQRLARDGWLKIQHGKPTRVNNFWETSGLNILETIADLNPEGFPVLVDQLLSARTNVSAIYFRGALRNNPDTAMEVLAQIHQLEDTAESFAEYDYLLHHTLAFSSGNPLYVLILNGFKGLYSRVGRYYFSSSEARQLALNFYKELELLAKAKNYLDVPALMRTYGINSGKMWLQLRDDMPSSIAQQDSH
In the case of B4, the “stoichiometry N” value [5] is reported as 2.

B5: fabB_ec probe (dsDNA)
DNA 1: TCTATTAAATGGCTGATCGGACTTGTTCGGCGTACAAGTGTACGCTATTGTGCATTC
DNA 2: GAATGCACAATAGCGTACACTTGTACGCCGAACAAGTCCGATCAGCCATTTAATAGA
B5: binds (FadR_ec [1]); binds (FadR_she [2]); binds (FadR_vc).
